Measurements reported in patent US10391048B2, “Recombinant high-stability superoxide dismutase and application thereof” (Hangzhou Redox Pharmatech Co., Ltd., priority 2016, dated 2019).
Where “and” joins values, the source holds several entries; their conditions need not be identical. Identical values can stand only once. Marks after values point to notes of the source that are not given here.

Experiments:
[1] = tested on: copper sulfate induced zebrafish inflammation model; assay: anti-inflammatory effect on copper sulfate-induced inflammation; assay type: in vivo; parameters: numbers of neutrophils (mean ± SE): dose or concentration left out as unconfirmed; details: 5 hours; for Inflammation resolution rate (%): copper sulfate
Procedure: The specific method was described by d'Alencon et al., BMCBiology.
The images were analyzed by Nikon NIS-ElementsD3.10 advanced image processing software.

[2] = tested on: tail amputation injury zebrafish inflammation; assay: anti-inflammatory effect on inflammation of tail amputation injury; details: 5 hours
Procedure: Model making: The model of zebrafish inflammation was established by mechanical amputation of tail fins of transgenic neutrophil fluorescent zebrafish.
The transgenic neutrophil fluorescent zebrafish were randomly selected and put in the six-well plate after mechanical amputation of tail fins, 30 per well. […] The normal control group and model control group were set at the same time. […] Image analysis was performed with Nikon NIS-Elements D3.10 advanced image processing software, the number of neutrophils (N) in zebrafish was calculated, and quantitatively analyzed. The formula of the rate of inflammation resolution was as follows:

[3] = tested on: LPS-induced zebrafish inflammation model; assay: anti-inflammatory effect on LPS-induced inflammation; details: 5 hours; for numbers of neutrophils (mean ± SE): model control 17.8
Procedure: The zebrafish inflammation model was established by treatment of transgenic neutrophil fluorescent zebrafish through LPS injection.
The zebrafishes were randomly selected and put in the six-well plate, 30 per well. […] The normal control group and model control group were set at the same time. […] Image analysis was performed with Nikon NIS-Elements D3.10 advanced image processing software, the number of neutrophils (N) in zebrafish was calculated, and quantitatively analyzed. The formula of the rate of inflammation resolution was as follows:

[4] = tested on: TNBS-induced colonitis zebrafish model; assay: pathological analysis of intestinal tract tissue; assay type: in vivo; details: 15 μg/mL, 48 hours
Description: The fixed zebrafish was observed under the microscope for the colonic tissue and photographed for histopathological analysis, as described in the experimental results.

zebrafish [5] = assay: maximum non-lethal concentration (MNLC), 5 h treatment; assay type: in vivo; details: 2000 μg/mL for 5 hours
Procedure: 30 zebrafishes were treated in each experiment group. During the course of the experiment, the dead zebrafishes were counted and removed. After the M-type SOD treatment, the number of dead zebrafishes in each experiment group was counted, and MNLC was determined. […] Therefore, the concentration of 2000 μg/mL was selected as the maximum concentration in the evaluation of anti-inflammatory effect of SOD.

[6] = tested on: TNBS-induced colonitis zebrafish model; assay: therapeutic efficiency on TNBS-induced colonitis (intestinal lumen area); assay type: in vivo; details: 48 hours, model control 197660, normal control 130711
Procedure: (Please refer to A. Jemal, R. Siegel, J. Xu, et al. Ward. Clinicians, 2010, 277-300, and Intestinal Upregulation of Melanin-Concentrating Hormone in TNBS-Induced Enterocolitis in Adult Zebrafish. Plos One, 2013, 8(12):1524-1528).
Image analysis was performed by image analysis software, the area of zebrafish intestinal lumen was calculated, and quantitative analysis was carried out, and the statistical result was expressed with X±SE:
The therapeutic efficiency of the positive control group was calculated by replacing the treatment group in the above formula with the positive control group;

[7] = 1 h
Procedure: (§1) The enzyme activity of SOD was determined by pyrogallol autoxidation method.

[8] = tested on: TNBS-induced colonitis zebrafish model; assay: inflammation resolution of TNBS-induced colonitis (intestinal neutrophils); details: intestinal tract, 48 hours, model control 9.4, normal control 1.6
Procedure: Transgenic neutrophil fluorescent zebrafish of 3 days after fertilization was used to establish a zebrafish colonitis model after incubation for 48 h in water for fish containing a final concentration of 4.5 μM TNBS.
Model control group: TNBS-induced colonitis zebrafish model (model 2);
Positive control group: prednisone was added to water for fish at a final concentration of 15 μg/mL;
30 transgenic neutrophil fluorescent zebrafishes were treated in each experiment group for 48 hours;

zebrafish [9] = assay: maximum non-lethal concentration (MNLC), 48 h treatment; assay type: in vivo; details: for Death rate (%) / Death (tail): 48 hours; for Death (tail): 30 zebrafish
Procedure: 30 zebrafishes were treated in each experiment group;
During the experiment course, count dead zebrafish every day and remove dead zebrafish;

[10] = stability of SOD at different pH; assay type: physicochemical; details: pH 12
Procedure: as §1

Procedure for pepsin: Preparation of simulated gastric fluid: in accordance with the standard of the Pharmacopoeia 2010, namely: take dilute hydrochloric acid 16.4 ml (dilute hydrochloric acid: diluted hydrochloric acid 234 ml with water up to 1000 ml. The HCl contained in the solution should be 9.5% to 10.5%), add about 800 ml of water and pepsin 10 g (Sinopharm, 20141209) and shake well, then add water up to 1000 ml.
as §1

Molecule: COc1ccc2c(c1)c(CC(=O)O)c(C)n2C(=O)c1ccc(Cl)cc1 [indometacin, reference compound]
- Inflammation resolution rate (%) ([1]; 60 μM): 88*** %
- Inflammation resolution rate (%) ([2]; 60 μM): 62%
- Inflammation resolution rate (%) ([3]; 60 μM): 72%

Molecule: C[C@]12C=CC(=O)C=C1CC[C@@H]1[C@@H]2C(=O)C[C@@]2(C)[C@H]1CC[C@]2(O)C(=O)CO [prednisone, reference compound]
- intestinal histopathology [4]: intestinal mucosal histology was improved significantly

B1: M-type SOD: mutant high temperature resistant superoxide dismutase, amino acid sequence SEQ ID NO. 4; position 202 mutated from lysine to asparagine versus W-type SOD (protein)
chain: MPYPFKLPDLGYPYEALEPHIDAKTMEIHHQKHHGAYVTNLNAALEKYPYLHGVEVEVLLRHLAALPQDIQTAVRNNGGGHLNHSLFWRLLTPGGAKEPVGELKKAIDEQFGGFQALKEKLTQAAMGRFGSGWAWLVKDPFGKLHVLSTPNQDNPVMEGFTPIVGIDVWEHAYYLKYQNRRADYLQAIWNVLNWDVAEEFFNKA
modifications: amino acid sequence of M-type SOD
notes: position 202 mutated from lysine to asparagine versus W-type SOD
- toxic effects on zebrafish (zebrafish [5]): no toxic effects
- intestinal lumen area (mean ± SE) ([6]; 15 μg/mL in water for fish): 153560 ± 6080
- intestinal lumen area (mean ± SE) ([6]; 50 μg/mL in water for fish): 142595 ± 3167
- intestinal lumen area (mean ± SE) ([6]; 150 μg/mL in water for fish): 141259 ± 5359
- numbers of neutrophils (mean ± SE) ([1]; model control 15.5): 14.9 and 14.9 ± 0.6
- Inflammation resolution rate (%) ([1]; 15 μg/mL): 4%
- Inflammation resolution rate (%) ([1]; 50 μg/mL): 24%
- Inflammation resolution rate (%) ([1]; 150 μg/mL): 47%
- Inflammation resolution rate (%) ([1]; 450 μg/mL): 77%
- Inflammation resolution rate (%) ([1]; 1350 μg/mL): 91%
- Inflammation resolution rate (%) ([1]; 2000 μg/mL): 92%
- thermal stability (remaining enzyme activity) [7]: maintained extremely high stability within a wider temperature range
- number of neutrophils (mean ± SE) ([8]; 15 μg/mL): 6.8 ± 0.88
- number of neutrophils (mean ± SE) ([8]; 50 μg/mL): 5.6 ± 0.45
- number of neutrophils (mean ± SE) ([8]; 150 μg/mL): 3.7 ± 0.53
- Death rate (%) (zebrafish [9]; 150 μg/mL): 0%
- Death (tail) (zebrafish [9]; 150 μg/mL): 0 tail
- Death rate (%) (zebrafish [9]; 200 μg/mL): 20%
- Death (tail) (zebrafish [9]; 200 μg/mL): 6 tail
- Death rate (%) (zebrafish [9]; 330 μg/mL): 100%
- Death (tail) (zebrafish [9]; 330 μg/mL): 30 tail
- Death rate (%) (zebrafish [9]; 1000 μg/mL): 100%
- Death (tail) (zebrafish [9]; 1000 μg/mL): 30 tail
- Death rate (%) (zebrafish [9]; 3000 μg/mL): 100%
- Death (tail) (zebrafish [9]; 3000 μg/mL): 30 tail
- MNLC (zebrafish [9]; zebrafish, treatment for 48 hours): 150 µg/mL
- Inflammation resolution rate (%) ([2]; 150 μg/mL): 29%
- Inflammation resolution rate (%) ([2]; 450 μg/mL): 51%
- Inflammation resolution rate (%) ([2]; 1350 μg/mL): 58%
- Inflammation resolution rate (%) ([2]; 2000 μg/mL): 59%
- Inflammation resolution rate (%) ([3]; 15 μg/mL): 0%
- numbers of neutrophils (mean ± SE) ([3]; 15 μg/mL): 17.7 and 17.7 ± 1.4
- Inflammation resolution rate (%) ([3]; 50 μg/mL): 16%
- numbers of neutrophils (mean ± SE) ([3]; 50 μg/mL): 14.9 and 14.9 ± 1.0
- Inflammation resolution rate (%) ([3]; 150 μg/mL): 31%
- Inflammation resolution rate (%) ([3]; 450 μg/mL): 34%
- Inflammation resolution rate (%) ([3]; 1350 μg/mL): 58%
- Inflammation resolution rate (%) ([3]; 2000 μg/mL): 65%
- resistance against pepsin degradation (pepsin): significantly better than ordinary SOD
- activity kept [10]: 97%
- intestinal histopathology ([4]; 50 μg/mL and 150 μg/mL): the inflammation of intestinal mucosa was significantly improved
